In patent US20160296633A1:

Columns and labels:
[1] = target: CD74 (invariant chain, Ii) (human) (UniProt P04233); assay: flow cytometry, permeabilized Raji cells
[2] = target: CD74 (invariant chain, Ii) (human) (UniProt P04233); assay: flow cytometry, surface only, Raji cells
[3] = target: CD74 (invariant chain, Ii) (human) (UniProt P04233); assay: flow cytometry, permeabilized A-375 cells
[4] = target: CD74 (invariant chain, Ii) (human) (UniProt P04233); assay: flow cytometry, permeabilized HuH-7 cells
[5] = target: CD74 (invariant chain, Ii) (human) (UniProt P04233); assay: flow cytometry, surface only, A-375 cells
[6] = target: CD74 (invariant chain, Ii) (human) (UniProt P04233); assay: flow cytometry, surface only, HuH-7 cells
[7] = target: CD74 (invariant chain, Ii) (human) (UniProt P04233); assay: flow cytometry, permeabilized Hep-G2 cells
[8] = target: CD74 (invariant chain, Ii) (human) (UniProt P04233); assay: flow cytometry, permeabilized Hs746T cells
[9] = target: CD74 (invariant chain, Ii) (human) (UniProt P04233); assay: flow cytometry, surface only, Hep-G2 cells
[10] = target: CD74 (invariant chain, Ii) (human) (UniProt P04233); assay: flow cytometry, surface only, Hs746T cells
[11] = target: CD74 (invariant chain, Ii) (human) (UniProt P04233); assay: flow cytometry, permeabilized Capan-1 cells
[12] = target: CD74 (invariant chain, Ii) (human) (UniProt P04233); assay: flow cytometry, permeabilized NCI-N87 cells
[13] = target: CD74 (invariant chain, Ii) (human) (UniProt P04233); assay: flow cytometry, surface only, Capan-1 cells
[14] = target: CD74 (invariant chain, Ii) (human) (UniProt P04233); assay: flow cytometry, surface only, NCI-N87 cells
[15] = target: human trophoblast cell-surface antigen (Trop-2) (human) (UniProt P09758); assay: FACS on PC-3 cells
Sequence of human trophoblast cell-surface antigen (Trop-2) (human) (P09758 27-323): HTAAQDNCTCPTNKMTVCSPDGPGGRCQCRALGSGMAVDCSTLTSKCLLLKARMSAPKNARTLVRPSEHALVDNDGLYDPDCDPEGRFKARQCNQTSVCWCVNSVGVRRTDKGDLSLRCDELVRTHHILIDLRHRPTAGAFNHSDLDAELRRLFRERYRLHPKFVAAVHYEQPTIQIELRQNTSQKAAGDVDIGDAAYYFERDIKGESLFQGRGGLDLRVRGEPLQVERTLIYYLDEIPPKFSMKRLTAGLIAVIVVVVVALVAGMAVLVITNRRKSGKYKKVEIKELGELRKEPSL

[16] = target: human trophoblast cell-surface antigen (Trop-2) (human) (UniProt P09758); assay: FACS on BxPC-3 cells
[17] = target: human trophoblast cell-surface antigen (Trop-2) (human) (UniProt P09758); assay: FACS on Calu-3 cells
[18] = target: human trophoblast cell-surface antigen (Trop-2) (human) (UniProt P09758); assay: FACS on Capan-1 cells
[19] = target: human trophoblast cell-surface antigen (Trop-2) (human) (UniProt P09758); assay: FACS on COLO 205 cells
[20] = target: human trophoblast cell-surface antigen (Trop-2) (human) (UniProt P09758); assay: FACS on SK-MES-1 cells
[21] = target: human trophoblast cell-surface antigen (Trop-2) (human) (UniProt P09758); assay: cell-based or functional assay
[22] = target: human trophoblast cell-surface antigen (Trop-2) (human) (UniProt P09758); assay: FACS on PC-3 cells; background 5.5
[23] = target: human trophoblast cell-surface antigen (Trop-2) (human) (UniProt P09758); assay: FACS on BxPC-3 cells; background 3.1
[24] = target: human trophoblast cell-surface antigen (Trop-2) (human) (UniProt P09758); assay: FACS on Calu-3 cells; background 4.7
[25] = target: human trophoblast cell-surface antigen (Trop-2) (human) (UniProt P09758); assay: FACS on Capan-1 cells; background 5.0
[26] = target: human trophoblast cell-surface antigen (Trop-2) (human) (UniProt P09758); assay: FACS on COLO 205 cells; background 4.5
[27] = target: human trophoblast cell-surface antigen (Trop-2) (human) (UniProt P09758); assay: FACS on SK-MES-1 cells; background 3.5
[28] = target: human trophoblast cell-surface antigen (Trop-2) (human) (UniProt P09758); assay: flow cytometry, surface, Capan-1 cells
[29] = target: human trophoblast cell-surface antigen (Trop-2) (human) (UniProt P09758); assay: flow cytometry, surface, NCI-N87 cells

Sequence of CD74 (invariant chain, Ii) (human) (P04233 whole entry, change not shown): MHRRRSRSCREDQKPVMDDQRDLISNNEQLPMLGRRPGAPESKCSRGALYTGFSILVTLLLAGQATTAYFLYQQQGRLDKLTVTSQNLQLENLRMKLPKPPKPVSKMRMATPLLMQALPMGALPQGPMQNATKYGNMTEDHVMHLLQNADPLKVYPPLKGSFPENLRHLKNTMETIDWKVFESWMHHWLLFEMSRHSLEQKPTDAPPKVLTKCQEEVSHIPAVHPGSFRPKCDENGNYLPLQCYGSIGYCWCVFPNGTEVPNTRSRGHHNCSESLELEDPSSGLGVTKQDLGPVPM

## milatuzumab (hLL1), humanized anti-CD74 IgG1 (antibody)
[1]
  MFI ratio hLL1:bkgd (surface and cytoplasmic): 28.6
[2]
  MFI ratio hLL1:bkgd (surface): 19.6
[3]
  MFI ratio hLL1:bkgd (surface and cytoplasmic): 30.8
[4]
  MFI ratio hLL1:bkgd (surface and cytoplasmic): 28.5
[5]
  MFI ratio hLL1:bkgd (surface): 5.3
[6]
  MFI ratio hLL1:bkgd (surface): 1.6
[7]
  MFI ratio hLL1:bkgd (surface and cytoplasmic): 31.2
[8]
  MFI ratio hLL1:bkgd (surface and cytoplasmic): 28.8
[9]
  MFI ratio hLL1:bkgd (surface): 1.5
[10]
  MFI ratio hLL1:bkgd (surface): 2.1
[11]
  MFI ratio hLL1:bkgd (surface and cytoplasmic): 49.6
[12]
  MFI ratio hLL1:bkgd (surface and cytoplasmic): 36.7
[13]
  MFI ratio hLL1:bkgd (surface): 1.8
[14]
  MFI ratio hLL1:bkgd (surface): 1.3

## humanized RS7 IgG (hRS7), anti-Trop-2 (antibody)
[15]
  percent positive: 73.6%
[16]
  percent positive: 98.3%
[17]
  percent positive: 99.6%
[18]
  percent positive: 94.2%
[19]
  percent positive: 99.5%
[20]
  percent positive: 91.2%
[21]
  ADCC, specific lysis of BxPC-3 target cells by PBMCs (effector to target 100:1), antibody at 33.3 nM: 8.5%
[22]
  median fluorescence: 46.2
[23]
  median fluorescence: 26.4
[24]
  median fluorescence: 282
[25]
  median fluorescence: 100
[26]
  median fluorescence: 142
[27]
  median fluorescence: 44
[28]
  MFI (surface): 237
[29]
  MFI (surface): 795
